# Results reported in patent US20240239860.
# T1: thio GLP-1 (GLP-1 7-36 with a thioamide at the Ala8-Glu9 scissile bond)
# T1 chain: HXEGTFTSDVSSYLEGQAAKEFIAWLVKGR
# B1: dipeptidyl peptidase 4 (DPP-4) (protein)
# chain: SRKTYTLTDYLKNTYRLKLYSLRWISDHEYLYKQENNILVFNAEYGNSSVFLENSTFDEFGHSINDYSISPDGQFILLEYNYVKQWRHSYTASYDIYDLNKRQLITEERIPNNTQWVTWSPVGHKLAYVWNNDIYVKIEPNLPSYRITWTGKEDIIYNGITDWVYEEEVFSAYSALWWSPNGTFLAYAQFNDTEVPLIEYSFYSDESLQYPKTVRVPYPKAGAVNPTVKFFVVNTDSLSSVTNATSIQITAPASMLIGDHYLCDVTWATQERISLQWLRRIQNYSVMDICDYDESSGRWNCLVARQHIEMSTTGWVGRFRPSEPHFTLDGNSFYKIISNEEGYRHICYFQIDKKDCTFITKGTWEVIGIEALTSDYLYYISNEYKGMPGGRNLYKIQLSDYTKVTCLSCELNPERCQYYSVSFSKEAKYYQLRCSGPGLPLYTLHSSVNDKGLRVLEDNSALDKMLQNVQMPSKKLDFIILNETKFWYQMILPPHFDKSKKYPLLLDVYAGPCSQKADTVFRLNWATYLASTENIIVASFDGRGSGYQGDKIMHAINRRLGTFEVEDQIEAARQFSKMGFVDNKRIAIWGWSYGGYVTSMVLGSGSGVFKCGIAVAPVSRWEYYDSVYTERYMGLPTPEDNLDHYRNSTVMSRAENFKQVEYLLIHGTADDNVHFQQSAQISKALVDVGVDFQAMWYTDEDHGIASSTAHQHIYTHMSHFIKQCFSLP
# Target: T1, thio GLP-1 (GLP-1 7-36 with a thioamide …)
protein,measurement,value
B1,cleavage of Gly-Pro-pNA substrate by DPP-4,did not inhibit cleavage of Gly-Pro-pNA substrate at 100 µM
